Results as given in the nanobody polyreactivity screen of Harvey et al. (2022).

Experiment: yeast display, Sf9 membrane polyspecificity reagent, FACS + sequencing; frameworks hold sequencing errors
Procedure, shortened: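 In a synthetic yeast display library (Saccharomyces cerevisiae BJ5465), nanobody expression was induced with galactose for 36–48 hours. FACS gates were set low and high (top ~1%) using anti-HA fluorescence for expression and streptavidin fluorescence for binding of the Sf9 membrane reagent. Each polyreactivity label is drawn from the gate of origin.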

Sequence	polyreactivity (PSR sort gate)
QVQLVESGGGLVQAGGSLRLCCAASGSTQAIYAMGWYRQAPGNERELVAAISGGGSTYADSVKGRFTISRDNAKNTVYLQMNSLKPEDTAVYYCNADGWGDSFWSNFRFDYWGQGTQVSVSS	low polyreactivity
QVQLVESGGGLLQAGGSLRLSCAASGRTFHLYAMGWYRQAPGKERELVAAIRGRSGSTYYADSVKGRFTISRDNAKNTVYLQMNSLKPEDTAVYYCAVGRYPYGSARYRFDYWGQGTQVTVSS	high polyreactivity
QVQLVESGGGLVQAGGSLRLSCAASGLIFYSYAMGWYRQAPGKERELVAAINGGGGSTYYADSVKGRFTISRDNAKNTVYFQMNSLKPEDTAVSYCAAPYYRLTGWSRYDYWGQGTQVTVSS	high polyreactivity
QVQLVEAGGRLVQAGGSLRLSCAASGSIFYRNAMGGYRQKPGKEMELVAVITRRGGRKYYADSVKGRITISRDNAKNTVYLQMNSLIPEDTAVFYCAKRGWSDYNPIDYWGQGTPVTVSS	low polyreactivity
QVQLVESGGGLVQAGGSLRLSCAASGLIFSTYYMGWYRQAPRKERELVAAISTGGSTYCADSVKGRFTISRDNAKNTVYLQMNSLKPEDTAVYYCAAGYTYHSWPLYYWDYNYWGQGTQVTVSS	low polyreactivity
QVQLVESGGGLDQARGSLRLSCAASGSTFYYYAMGWYRQAPGKERELVAAITSRGGRTYYADSVKGRFTISRDNAKNTVYLQMNSLKPEDTAVYYCNARTIYYGFDYWGQGTQVTVSS	low polyreactivity
QVQLVESGGGLVQAGGSLRLSCAASGRIFGLYAMGWYRQAPGKERELVAAYADSVKGRFTISRDYAKNTVYLQMNSLKPEDTAVYYCAKGPLYAGYSIDLRDFNYWGQGTQVTVSS	low polyreactivity
QVQLVESGGGLVQAGGSLRLSCAASGSTFRYYAMGWYRQAPGKERELVAAISGSGGRTYYADSVKGRFTISRDNAKNTVYLQMNSLKPEDTAVYYCITRGRRTDYDYWGQGNQVTVSS	high polyreactivity
QVQLVESGGGLVQAGGSLRLSCAASGRIFAYYAMGWYRQAPGKERELVATIRSGGDTNYADSVKGRFTISRDNAKNTVYLQMNSLKPEDTAVYYCNALYDWWYPHEYNYWGQGTQVTVSS	low polyreactivity
QDQRVDSGRGLVQAGGSLRLSCAASGSIFDFYARGWNRPAPGKERELVATISSAGSTYYAESVKGRFTISRDNAKNTVYLQMNSLKPEDTALYYCARGYIRSYWWYHSDRGDFWGQGTQVTVSS	low polyreactivity
QVQLVESGGGLVQAGGSLRLSCAASGSIFGDNAMGWYRQAPGKERELVAAISIVGSTSYADSVKGRFTISRDNAKNTVYLPMNSLKPEDTAVYYCAAETVRSDTGFDYWGQGTQVTVSS	low polyreactivity
QVQLVESGGGLVQAGGSHRLSCAASGRIFYRYVMGWYRQAPGKERELVAAISRGGGTNYADSVKGRFTISRDNAKNTVYLQMNSLKPEDTAVYYCAARGSPGAGYYWGQGTQVTVSS	high polyreactivity
QVQLVESGGGIVQAGGSLRLSCAASGFTFGDYVMGWYRPAPGNERELVAAITTSGTRTSYADSVKGRFTISRDNAKNTVFLQMNSLKPEDTAVYYCAAEHTNYYYFWQAHYYWGPGTQVTVSS	high polyreactivity
QVQLVESGGGLVQAGGSLRLSFAASGSTFNIYTMGWYRQAPGKEWELVARITFSGGSTYYADSVKGRFTISRDYAKNTVYLQMNSLKPEDTAVYYCAVRVYRVDHFCYDYWGQGTQVTVSS	high polyreactivity
QVQLVESGGGLVQAGGSLRLSCAASGSTFYRYTMGWYRQAPGKERELVAAISRSGGRTYYADSVKGRFTISRDNAKNTVYLQMNSLIPEDTAVYYCNAEIASSAVQAQEGDYWGQGTQVTVSS	high polyreactivity
QVQLVESGGGLVQAGGSLRLSCAASGRIFVLYAMGWYRQAPGKERELVAAINWSGGSTFYADSVKGRFTISRDNAKNTVYLQMNSLKPEDTAVYYCAARRGYNDGYWGQGTQVTVSS	high polyreactivity
QVLLVESGGGLVQAGGSLRLSCAASGSIFGQYTMGWYRQAPGKERELVAAINSSGDSTFYADSVKGRFTISRDNAKNTVYLQMNSLKPEDTAVYYCAADPYRYYFRAYGWHREGYYWGQGTQVTVSS	low polyreactivity
QVHLVESGGGLVQAGGSLRLSCAASGSTFYANAMGWYRQAPGKDRELVAVIRWSGGSTYYADSVKGRFTISRDNAKNTDYFQINSLKPEDTAVYYCNADFYRVAYLRRYSHFDYWGQGTQVTVSS	high polyreactivity
QVQLVESGGGLVHAGGSLLLSCAASGRTLGWYAMGWYIQAPGKERELVATISITGGSTYYAVSVKGRFTISRDYAKNTVYLQMNSLKPEDTAVYYCAARHGSRRRYYYWGQGTQVTVSS	high polyreactivity
QGQLVESGGGLVQAGGSLRLSCAASGSIFPVYAMGWYRQAPGKEREFVARIRFSGGRTYYADSVQGRFTISRDNAKNTVYLQMNSLKPEDTAVYYCAKAQYSGRYGYWGQGTQVTVSS	high polyreactivity
QVQLVESRGGLVQAGGSLRLSCAASGYTFDANAMGWYRQAPGKERELVASISSISDSTDYADSVKGRFTISRDNAKNTVYLQMNSLKPVDTAVYYCARSDVKPGRQERDYWGQGTQVTVSS	low polyreactivity

Sequence	polyreactivity (PSR sort gate)
QVQLVESGGGLVQAGGSLRLSCAASGSIFGFYAMGWYRQAPGKERELVASINWSGGSTYYADSVKGRFTISRDNAKNTVYLQMNSLKPEDTAVYYCNADQYHWYDYWGQGTQVTVSS	low polyreactivity
QVQLVESGGGLVQAGGSIRLSCAASGIIFDTYAMGWYRQAPGKERELVAVISASGGSTYYADSVKGRFTISRDNAKNTVYLQMNSLKPEDTAVYYCAARHSLYGYWGQGTQVTVSS	high polyreactivity
QVQLVESGGGLVQAGGSLRLICAASGSTFAIYAMGWYRQAPGKERELVAAISWRTGSTYYADSVKGRFTISRDNAKNTVYLQMNSLKPEDTAVYYCAVRGRLQYSGGEGNYWGQGTQVTVSS	high polyreactivity
QVQLVESGGGLVQEGGSLRLSCAASGRIFDVYVMGWYRQAPGKERELVDAISQSGGRTYYADSVKGRFTISRDNAKNTVYLQMNSLKPEDTAVYYCNTVTSLATNFSGFGYWGQGTQVTVSS	high polyreactivity
QVQLVESGGGLVQAGGSLRLSCAASGSIFRRYDMGWYRQAPGKERELVAAISSSGGSTYYADSVKGRFTISRDNAKNTVYLQMNSLKPEDTAVYYCAADIYDDDRSEYTEYDYWGQGTQVTVSS	low polyreactivity
QVQLVESGGGLVQAGGSLRLSCAASGSTFLVYAMGWYRQAPGKERELVAAINFSGSSTYYADSVKGRFTISRDNAENTVYLQMNSLKPEDTAVYYCAADSLELWYGYFWVKVPYDYWGQGTQVTVSS	low polyreactivity
QVQLVESGGGLVQAGGSLRLSCAASGFIFWFNAMGWYRQAPGKERELVATISWSDTSTYYADSVKGRFTISRDNAKNTVYLQMNSLKPEDTAVYYCATDGRETWLPEYYWGQGTQVTVSS	low polyreactivity
QVQLVESVGGLVQAGGSLRLSCAASGSIFGSYAMGWYRQAPGKERELVAAITYSGTSTYYADSVKGRFTISRDNAKNTVYLQMNSLKPEDTAVYYCYAVSRHRSKFDYWGQGTQVTVSS	high polyreactivity
QVQLVESGGGLVQAGGSLRLSCAASGFIRYYAMGWYRNAHGKERELVAAITATGASTYYADSVKGRFTISRDNAKNTVYLQMNSLKPEDTAVYYCIVRLRISSGYWGQGTQVTVSS	high polyreactivity
QVHLVDSGGGIVQAGGSLRLSCAATGRISGVYAMVWYRQAPGKERELVAAISWSGGRTYYADSVKGRFTISRDNAKNTVYLQMNSLKPEDTAVYYCNADTGFRSYRRDYWGQGTQVTVSS	low polyreactivity
QVQLVESGGGLVQAGGSLRLRCAASGLTFVRYTMGWYRPAPGKERELVAAITYSDASTYYADSVKGRFTISRDNAKNTVYLQKNSLKPEDTAVYYCAAVYFGGPRSNSPYSRYGYWGQGTQVTVSS	low polyreactivity
QVQLVESGGGLVQAGGSLRLSCAASGITFKGYTMGWYRQAPGKERELVATISRGGRTYAVSVKGRFTISRDNAKNTVYLQMNSLKPEDTAVYYCAADKYWAQNDYWGQGTQVTVSS	low polyreactivity
QVQLVESGGGLVQAGGSLRLSCAASGRIFYGYAMGWYRQAPGKEREFVARINVSGTSTFYADSVKGRFTISRDNAKNSVYLQMHSLKPEDTAVYYCAARGLPSNYYYYVHGYIMDYWGQGTQVTVSS	low polyreactivity
QVQLVESGGGLVQAGGSLSLSCAASGRTFGYNAKGWYRQAPGKERELVASISYRGGSTYYADSVKGRFTISRDNAKNSVYLQMNSLKPEDTAVYYCNKYYVLREYYWGQGTQVTVSS	high polyreactivity
QVQLVESGGGLVQAGGSLRLSCAASGSTFYTYPMGWYRQAPGKERELVAAISYRGGSTYYADSVKGRFTISRDTAKNTVYLQMNSMKPEDSAVYYCNVVGVVVGTKRGGYDYWGQGTHVTVSS	low polyreactivity
QVQLVESGGGLVQAGGSLRLSCAASGSTFKYNTMGWYRQAPGKERELVARISWSGTRTYYADSVKGRFTISRDNAKNTVYLQMNSLKPEDTAVYYCAKVSYFWSPYGYDSWGQGTQVTVSS	high polyreactivity
QVQLVESGGGLVQAGGSLRLSCAASGRIFQPNVMGWYRPAPGKERELVAAIRSGSSTYYADSVKGRFTISRDNAKYTVYLQMNCLKPEDTAVYFCATRYRKQYKPYEYWGQGTQVTVSS	high polyreactivity
QVQLVESGGGLVQAGGSLRLSCAASGSTFAGNAMGWYRQAPGKERELVAAIDSSTGSTYYADSVKGRFTISRDNAKNTVYLQMNSLKPEDTAVYYSNAEIYPIVKAGRQHPRRYDYWGQGTQVTVSS	low polyreactivity
QVQLVGSGGALVQAGGSLRLSCAASGRTFSYYAMGWYRQAPGKERELVASIRSSRTSTYYADSVKGRFTISRDNAKNTVYLQMNSLKPEDTAVYSCAKRYFTWRSTYNYWGQGTKVTVSS	high polyreactivity
QVQLVESGGGLVQAGGSLRLSCAASGFIFVYYGMGWYRQAPGKERELVAAISRSGGSTYYADSVKGRFTISRDNAKNTVYLQMNSLKPEDTAVYYCAARPDRSSQFDSWGQGTQVTVSS	high polyreactivity
